Source: a protein production outcome set (Wang et al. 2014)

Test: label from the status in PepcDB records

Sequence | protein production
MKIITCYKSVPDEQDIVVNNADGSLDFSRANNKISQYDLNAIEAANQLKTQLDGIQITAMSVGGNALTNAKARKDVLSRGADDLVVVVDEQLEASLPYQTATVLAAAATKQGYDLILCGDGSADLSSQQVSLLVGEILNIPAINGVNKIVSITTDSITVERELENEIETLTITLPAVIAVSTDINSPQIPSMKAILGAAKKPVQQWSVADLGLEPITPRSEQTVLAPKQKVRQRIIIEGDGDDQIAEFAEYLRKIIK | failed
QEQRMSHHYATIEVSQQLRQLLGDQLVILLRETPDGQALERSQNDFRRVLEQGRANTVDSAEQAALDGVRDAYLQLQAHTPALLEAPMADNDGFSEAFNGLRLRLQDLQQLALAGISEAETSARHRA | not failed
MNKTMAKSLSVIIPACNEVDTISDVIQSVRPLNPVEIIVVANGCNDGTEDVADRLGCKVIKHTELLGNDVGRAVGAKHAIGDVLLFIDGDFAIPTSKLKLFLNPILYDQADVVLNNLDALFLKRQKTTSITVWRQILNAMLEREELKMNSLLDVPHALTKEVVQSIGYECFVNPIVAHLRLVQSKWRISRHCAIDVITPNKFRPFQHAAYGTNLSQSEKRMIGDHIEAVAERILSSDERGGYYDGNRKRDSVYHTLSFEEFYQGWGVTSDFYKGKQLSVVIPVQDEEKTIGNVIEELRKIEPFEIIVVVNGSSDKTKKIAKDKGATTIVYKEALGNDVGRSLGTYFAKGEIVLFIDGDFVIPASELYPFAKAIADGTDVALNDLNHYLDLRVPLHLVTAFKYALNLACDRKDLGVGSLIAVPNAFSRKCLKEIGYRSLLAPCVAQVKAILSGFEVACVSRVEVDKMNRIRPSEHFAKIGHPPAVLRIIGDHIEGLDQIIALTDNRGGFYDGNRKRDVLLEHHHHHH | failed
MPPRRRPHAGLTLPRILILNLLKALATISSLTMLSRITGLVREILIARAFGASDMTDAFNVAFRIPNLLRRIFAEGAFSQAFVPILNEYHGKRGHDETMSLVDAVATVMTWVLAAVSLLGVIGAPIVMTVVATGFRGDSETYNAAVFMTRVMFPYIGLISMVALASGILNTWRNFAVPAFTPVLLNLCLIVAALFVGPHMSQPIYAQAWGVLVGGVLQLVIQVPAMRKLGVMPRVSLNLRAAWANPGVRRVITQMLPALLAVSVAQISLIINTNIASRLGAGAVSYITYADRLMEFPTALLGVALGTILLPSLSRASAEDNREEYSGLLDWGLRLTFLLALPCAAGLMLFGTPITSVLFHYGRFDAHAVEMTQQALTTYGVGLLALILIKILTPGFYARQDIRTPVKIAILVLIITQASNYVFVPMLQHAGLPLSISFGATVNALLLFYGLRRRGYYHPAPGWGLFLLRLVAAMLILSGMLLWFARNFDWIALGATPGLRIALMGACLVLAATVYFGTLWLMGLRYSSFRRRAG | failed
LLGLGVGPGDPELITLKALRLLRAAPVVGYFVAKGKKGNAFGIIEAHLDQAQVRLPLVYPVTTEKLEPPLCYETIISDFYDTAAEQLAAHLDAGRDVAVICEGDPFFYGSYMYLHDRLATRYESEVVPGVCSMLGGAAVLGAPLVYRNQSLSVLSGVLPEEELRRRLADADAAVVMKLGRNFDKVRRVLVELGLERRALYVERATMANQRIVPLERVEPMASPYFSLIVVPGDKWQGGAGGE | failed
MSNGNKSEKKTLILALVAGMCGDALLSWLTMSEVSFSIFPLIALVLAVQALYQEYLNNPVSEDIPLVGLACFFVGAFGHSAFIKAQYPEAGSNFFAIMVSMILLAWIGKKLGFMEKKTSAE | failed
MMPPQRSAGTDPEAEHPQYAGQYLLEAALGSGGMGVVHLARSASGLRLAVKVVHAQYAQDPEFRGRFRQEVAAARRVSGAFTAPVVDADPGAGRPWMATLFIPGPTLAEHVKRNGALPPARLRHLMAGLAEALRDIHRAGVVHRDLKPSNVLLAEDGPKVIDFGISRPSDSELRTETGKLIGTPPFMAPEQFRRPREVGPAADVFALGSVIVHAATGSGPFDSDSPYLVAYQVVHDEPDLTGVPEELAELVAGCLAKEPDDRPTPDELMTALRSVSASYDTQAFIPVQRDGSSGSAWRPGPGPGTGPGTGPGPGPGHGGERVVTHQVRQPEPVAAPAARKRLGRRLWIPAVAVAVLACVAGALVLLGPGTGAPREQDAAPSKAAFQPWDIGLSAGGSKATGMAQCAYAPHRLYCTRPGVLAAAVDPADGKVLWSRGDAKRHSDGTVRPPVLSGGLLHVVSEGGKRLAALDPATGKTRWSHDLAAYGGRFAQVGGVVLLTGADARVTALDAATGEEKWRRRIPGQPQPAFVSYGDGLAYAVAAAGSGTKVAAVDPESGATRWQRRFDGVLSLVGAHDGAVWFASTTADSDTDAVVRYDVTRRTVRRVGLRFPLQGAQAVVRKDTVYVLANGGALVAVDTRTSKELWRLETSVSFASAPVAAGDRVYFAGADGRLLAVDASKGVLLGQTKARLGGAHGSLVSGLPSPVAADGKVYSAAPDGSLFAVDARRPGGW | failed
MAESQALSDDIGFLLSRVGGMVLGAVNKALVPTGLRVRSYSVLVLACEQAEGVNQRGVAATMGLDPSQIVGLVDELEERGLVVRTLDPSDRRNKLIAATEEGRRLRDDAKARVDAAHGRYFEGIPDTVVNQMRDTLQSIAFPTFVE | not failed
SWLYGKSDARWTITEYADLECPYCRTYTPQLMQWIDGQTDVNLVWHHFPLQMHGAATLKEARLVQCAGKLGGGKAFWNAIDQVLKHTRGDGQGLVTSIALSGIDAVVLDRCATLDADVALHVDQQLQLAQQAGVTATPTIKITDTQTRHSVRLEGPVDEVSILSAMDRLAFESK | failed
MSNVSSETVNLNNTSIVHMNMSNVTKLTASNYIMWSRQVHALLHGYGLTQYLDATKAAPAREITVNDVASVNPEYEAWSRQDQLIFSALIGTLSLTVQPTVSRAATSADVWATLAGTYAKPSRGHIKQLQHQIKQWKKDTRTIDEYVQGFINRFDQLALIGKIIDHEDQVDYILGGLPEDYKPIVDQMEGRDTPPNGCLTNSCDEDGCFIQMALNSV | failed
MSLAPYRVDFILLEHFSMASFTVAMDVLVTANLLRADSFQFTPLSLDGDRVLSDLGLELVATELSAAALKELDLLVVCGGLRTPLKYPELDRLLNDCAAHGMALGGLWNGAWFLGRAGVLDDYGCSIHPEQRASLSERSPQTRITPASFTLDRDRLSAASPNGAMELMLGLVRRLYGDGLAEGVEEILSFSGAREGHHHHHH | not failed
MANQLDASVKDDLKTQFVTREGTYRLLTLSEYSRPNRVGYSSNQSSPQVRVSMVTLPSPAQGKLGSDVGVGTPVGGGTAGANTTTTNGSSPGASPTGAAGASTAISNGGAGGDYSHSNHNSNSAGNNTVEARLGGGISMHSMMNGGVVDQNGVATNQVLGGDRICFNFGRDLYVYSFRGAKKGTEMSKPIDKKFYKGTNPSCHDFNISSATPTGAPLLVGFTTGQIQLVSPHVGPREVRKLFNEERLIDKTKVTCLKWLPNSPHLFLAAHASGHLYLYNEELPCAATAPSYQPFKLGDGYTILTSKSKTTRNPLFKWVFSTDNCCVNEFCFSPCGSHLAVVSQDGFLRVFHYDTMELLGIARSYFGGFLCVCWSPDGKYIVVGGEDDLVTVWSLHERRVVARGQGHRSWVSVVAFDPYTTSYTNWDGGDFSDDENQMNEYSHSREARFSGDSTANGGFEGFDRNSTPVHADRNGPHSASFRSDASSAEKLMSYRLGSVSQDTQICLWDITEDVLRHPLVLRQPANSERAYLNGGVDEEAEAEDGIKVIRPVAMSGQATGQQAESGSCSPTREAAGGGTGNGAGEHSNSSSSKFSTANCTISSQSSPDDCDTEAATPASTSSNAGAGSVAGAGAVASTKQNNRNHGTGNSIKFPNCISATKSDSIDGGGGSGSGQRPSQTTSGYNSKTSNSSNKSSNSGSGFSAFNSLTQRLSNFSFLSSSEKKGAGYEGSHSTAHRQHRKAMSMLKSYNQHNHTGGHNNHSQSNNSSSSNFGHSSTLDSNAAGAIGSSSTAHSFGSLKLSRSSHHSSLATAAHASGSAAGSGSGVSSFDPMQLIGTPACPRFDECPLLEPLVCKKIAHERLTALIFREDCFLTACQDGFIYTWARPGHATHATQHLSPGQAAAPGGTVI | failed
